This is an account of results in patent publication US20200377556A1 (ABERA BIOSCIENCE, published 2020).

Assay [1] has as its target T1, HbpD(Δd1)-SpT (Escherichia coli, UniProt O88093 53-1377).
T1 construct: also called HbpD(Δd1)-SpyTag; Hbp(Δd1)-SpT
Briefly: covalent Spy-ligation to S. Typhimurium cells, SDS-PAGE/Coomassie.

Assay [2] concerns the target T1, HbpD(Δd1)-SpT. Nature of the assay: SDS-PAGE/Coomassie of S. Typhimurium cells displaying HbpD(Δd1)-SpT incubated with GFPnb-SpC EQ.

B1: GFPnanobody-SpyCatcher (VHH)
VHH: QLVESGGALVQPGGSLRLSCAASGFPVNRYSMRWYRQAPGKEREWVAGMSSAGDRSSYEDSVKGRFTISRDDARNTVYLQMNSLKPEDTAVYYCNVNVGFEYWGQGTQVTVSS
notes: also called GFPnb-SpC; GFPnanobody-SpC
As for B1, in the assay with HbpD(Δd1)-SpT [1], the binding result is on record as “binds”.

B2: GFPnanobody-SpC_EQ (VHH)
VHH: QLVESGGALVQPGGSLRLSCAASGFPVNRYSMRWYRQAPGKEREWVAGMSSAGDRSSYEDSVKGRFTISRDDARNTVYLQMNSLKPEDTAVYYCNVNVGFEYWGQGTQVTVSS
notes: also called GFPnb-SpC EQ; GFPnb fused to SpyCatcher E77Q mutant
Take B2: the binding result with HbpD(Δd1)-SpT [2] is “no binding (tested: 3 µM)”.
